How the values were obtained:
[1] = target: T1, EphA1 overexpressed on 293T cells (UniProt P21709 26-976, limits assumed); experiment: flow cytometry on 293T cells overexpressing EphA1-A8
T1 construct: whole, on cells
T1 sequence (looked up): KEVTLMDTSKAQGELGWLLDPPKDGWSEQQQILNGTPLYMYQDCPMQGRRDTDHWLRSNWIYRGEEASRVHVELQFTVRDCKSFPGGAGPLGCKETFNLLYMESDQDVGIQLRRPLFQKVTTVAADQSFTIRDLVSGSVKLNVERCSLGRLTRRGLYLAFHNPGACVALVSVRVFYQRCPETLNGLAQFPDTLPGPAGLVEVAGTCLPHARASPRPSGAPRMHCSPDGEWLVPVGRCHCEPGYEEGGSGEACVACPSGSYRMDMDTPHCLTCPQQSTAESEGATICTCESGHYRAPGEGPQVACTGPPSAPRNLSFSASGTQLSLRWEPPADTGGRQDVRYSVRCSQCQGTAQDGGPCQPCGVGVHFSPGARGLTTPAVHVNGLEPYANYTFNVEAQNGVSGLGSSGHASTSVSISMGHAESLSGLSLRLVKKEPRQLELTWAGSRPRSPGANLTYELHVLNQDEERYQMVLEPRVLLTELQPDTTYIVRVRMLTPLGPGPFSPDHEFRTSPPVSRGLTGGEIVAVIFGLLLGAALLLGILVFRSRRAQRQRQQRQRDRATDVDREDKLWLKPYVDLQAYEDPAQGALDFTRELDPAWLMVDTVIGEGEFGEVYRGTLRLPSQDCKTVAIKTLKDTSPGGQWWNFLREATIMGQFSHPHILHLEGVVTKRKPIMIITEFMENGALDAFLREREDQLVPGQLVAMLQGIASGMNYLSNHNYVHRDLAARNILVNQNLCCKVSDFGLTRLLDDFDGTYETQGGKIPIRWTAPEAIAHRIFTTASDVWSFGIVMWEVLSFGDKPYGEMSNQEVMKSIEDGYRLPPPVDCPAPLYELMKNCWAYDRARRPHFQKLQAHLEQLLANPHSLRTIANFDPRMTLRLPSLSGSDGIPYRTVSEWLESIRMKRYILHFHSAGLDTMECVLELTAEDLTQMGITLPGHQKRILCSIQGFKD
Experimental: (§1) To detect the binding specificity of scFv, 293T cells were transformed with EphA1-A8 plasmids individually for overexpression of different EphA molecules. The cell line was freshly prepared and washed with FACS buffer (2% FBS in PBS). The cells were seeded at 1×10⁵ cells/well into a 96-well Ubottom plate and incubated with scFv for 1 h at 4° C. After the plate was washed with FACS buffer, the anti-hemagglutinin (HA) antibody was added for scFv binding detection (scFv was fused with a HA tag) and subsequently developed using an FITC-conjugated secondary antibody. Finally, the cell binding signal was analyzed using a FACS can flow cytometer.

[2] = target: T2, EphA3 overexpressed on 293T cells (UniProt P29320 21-983, limits assumed); experiment: as above
T2 construct: whole, on cells
T2 sequence (looked up): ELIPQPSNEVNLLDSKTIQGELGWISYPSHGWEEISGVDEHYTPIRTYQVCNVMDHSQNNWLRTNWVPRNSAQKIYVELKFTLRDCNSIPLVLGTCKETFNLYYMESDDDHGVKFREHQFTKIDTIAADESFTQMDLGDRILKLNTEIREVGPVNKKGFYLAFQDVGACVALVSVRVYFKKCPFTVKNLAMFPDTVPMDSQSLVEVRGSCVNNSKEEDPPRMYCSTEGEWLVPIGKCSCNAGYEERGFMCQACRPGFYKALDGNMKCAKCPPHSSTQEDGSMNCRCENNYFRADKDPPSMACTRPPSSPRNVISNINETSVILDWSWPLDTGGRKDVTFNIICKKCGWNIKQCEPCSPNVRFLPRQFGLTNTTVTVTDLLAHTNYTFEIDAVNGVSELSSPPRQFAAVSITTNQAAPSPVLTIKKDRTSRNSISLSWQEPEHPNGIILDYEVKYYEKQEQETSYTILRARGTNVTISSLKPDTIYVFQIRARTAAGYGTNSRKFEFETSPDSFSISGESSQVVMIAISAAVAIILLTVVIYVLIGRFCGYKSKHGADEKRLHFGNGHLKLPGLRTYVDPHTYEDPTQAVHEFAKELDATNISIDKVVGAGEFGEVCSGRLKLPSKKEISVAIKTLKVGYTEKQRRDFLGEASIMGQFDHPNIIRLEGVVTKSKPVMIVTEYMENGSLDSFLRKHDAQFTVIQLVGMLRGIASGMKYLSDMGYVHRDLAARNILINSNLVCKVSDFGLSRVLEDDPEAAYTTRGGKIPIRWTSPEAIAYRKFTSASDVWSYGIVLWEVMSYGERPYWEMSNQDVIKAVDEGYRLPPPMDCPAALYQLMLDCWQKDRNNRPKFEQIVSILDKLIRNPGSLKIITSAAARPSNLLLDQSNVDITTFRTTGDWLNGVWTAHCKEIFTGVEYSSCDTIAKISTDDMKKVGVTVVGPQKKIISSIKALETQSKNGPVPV
Experimental: as §1

- binding result [1]: no binding
- binding result [2]: no binding
B1: Humanized scFv hSD5 (scFv)
scFv: LTQPPSVSVSPGQTVRITCSGSSGSYGWYQQKSPGQAPVTLIYDNDKRPSGIPERFSGSSSGSTSTLTISGVQAEDEADYYCGSADSSTYVGMFGGGTKLTVLGQSSRSSQVQLVESGGGLVQPGGSLRLSCAASGFTFSDYGMGWVRQAPGKGLEWVAGISAAGSFTPYGAAVKGRFTISRDNSKNTVYLQMNSLRAEDTAVYYCARIPSGYRAGEIYTWGQGTLVTVSS
notes: also called hSD5 scFv; Humanized scFv hSDS

— US20250340655A1, “EPHA2-TARGETING ANTIBODIES AND THEIR APPLICATIONS IN CANCER TREATMENT” (TAIPEI MEDICAL UNIVERSITY, priority 2022, published 2025)
